The source of these data is patent US20050019842A1.

Test [1] addresses mouse IgG (Sigma Chemical Co., product number I5381). As to the kind of experiment: resonant light scattering; step 1, 2.2 mg/mL E. coli cellular extract proteins on mouse IgG microparticles; against the starting spectra.
Test [2] has the same target. As to the kind of experiment: resonant light scattering; step C, 40 µg/mL Fab specific goat anti-mouse IgG on mouse IgG held by Protein G′ microparticles; shift is cumulative against the unbound reference (0.054 nm after step B).
The target is the same in test [3]. As to the kind of experiment: resonant light scattering; step 2, 50 µg/mL anti-Alexa rabbit IgG in cell extract background on mouse IgG microparticles; against the starting spectra.
Test [4] has as its target avidin (from egg white, Sigma Chemical Co., product number A9275) (UniProt P02701). The test is described as follows: resonant light scattering; step C, 50 µg/mL antibody on avidin held on biotinylated microparticles; shift is cumulative against the unbound reference (avidin step alone 0.031 nm); N=18.
Sequence of UniProt P02701 (P02701 25-152 limits assumed): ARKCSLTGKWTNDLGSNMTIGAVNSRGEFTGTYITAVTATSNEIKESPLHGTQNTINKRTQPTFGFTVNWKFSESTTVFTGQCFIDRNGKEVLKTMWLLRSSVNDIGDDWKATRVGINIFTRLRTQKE
Test [5] has as its target Protein G′ (Sigma Chemical Co. product P-4689) (group G Streptococcal strain) (UniProt P19909). As to the kind of experiment: resonant light scattering, real time; 10 µg/mL mouse IgG on Protein G′ microparticles; time 11 min.
The target is the same in test [6]. The test is described as follows: resonant light scattering, real time; 10 µg/mL mouse IgG on Protein G′ microparticles; time 5 min.
Test [7] has the same target. As to the kind of experiment: resonant light scattering, real time; 10 µg/mL mouse IgG on Protein G′ microparticles; time 60 min.
For test [8] the target is unchanged. As to the kind of experiment: resonant light scattering, real time; 50 µg/mL mouse IgG on Protein G′ microparticles; time 35 min.
Test [9] shares this target. The test is described as follows: resonant light scattering, real time; 500 µg/mL mouse IgG on Protein G′ microparticles; time 35 min.
The target is the same in test [10]. The test is described as follows: resonant light scattering, real time; 50 µg/mL mouse IgG on Protein G′ microparticles; time 11 min.
Test [11] has the same target. The test is described as follows: resonant light scattering, real time; 500 µg/mL mouse IgG on Protein G′ microparticles; time 0 min (reference).
For test [12] the target is unchanged. As to the kind of experiment: resonant light scattering, real time; 10 µg/mL mouse IgG on Protein G′ microparticles; time 30 min.
Test [13] has the same target. As to the kind of experiment: resonant light scattering, real time; 10 µg/mL mouse IgG on Protein G′ microparticles; time 40 min.
The target is the same in test [14]. The test is described as follows: resonant light scattering, real time; 10 µg/mL mouse IgG on Protein G′ microparticles; time 50 min.
Test [15] has the same target. As to the kind of experiment: resonant light scattering, real time; 500 µg/mL mouse IgG on Protein G′ microparticles; time 5 min.
For test [16] the target is unchanged. As to the kind of experiment: resonant light scattering, real time; 50 µg/mL mouse IgG on Protein G′ microparticles; time 20 min.
Test [17] shares this target. As to the kind of experiment: resonant light scattering, real time; 500 µg/mL mouse IgG on Protein G′ microparticles; time 30 min.
For test [18] the target is unchanged. The test is described as follows: resonant light scattering, real time; 10 µg/mL mouse IgG on Protein G′ microparticles.
For test [19] the target is unchanged. The test is described as follows: resonant light scattering, real time; 500 µg/mL mouse IgG on Protein G′ microparticles; time 20 min.
The target is the same in test [20]. The test is described as follows: resonant light scattering, real time; 10 µg/mL mouse IgG on Protein G′ microparticles; time 16 min.
The target is the same in test [21]. The test is described as follows: resonant light scattering; step B, 50 µg/mL mouse IgG on Protein G′ microparticles, 0.5 h; against the unbound reference.
Test [22] has the same target. The test is described as follows: resonant light scattering, real time; 50 µg/mL mouse IgG on Protein G′ microparticles; time 30 min.
Test [23] has the same target. The test is described as follows: resonant light scattering, real time; 10 µg/mL mouse IgG on Protein G′ microparticles; time 20 min.
For test [24] the target is unchanged. The test is described as follows: resonant light scattering, real time; 50 µg/mL mouse IgG on Protein G′ microparticles; time 0 min (reference).
The target is the same in test [25]. The test is described as follows: resonant light scattering, real time; 10 µg/mL mouse IgG on Protein G′ microparticles; time 0 min (reference).
The target is the same in test [26]. As to the kind of experiment: resonant light scattering, real time; 500 µg/mL mouse IgG on Protein G′ microparticles; time 25 min.
The target is the same in test [27]. The test is described as follows: resonant light scattering, real time; 10 µg/mL mouse IgG on Protein G′ microparticles; time 25 min.
The target is the same in test [28]. The test is described as follows: resonant light scattering, real time; 500 µg/mL mouse IgG on Protein G′ microparticles; time 16 min.
The target is the same in test [29]. As to the kind of experiment: resonant light scattering, real time; 500 µg/mL mouse IgG on Protein G′ microparticles; time 11 min.
Test [30] shares this target. The test is described as follows: resonant light scattering, real time; 10 µg/mL mouse IgG on Protein G′ microparticles; time 35 min.
Test [31] has the same target. The test is described as follows: resonant light scattering, real time; 50 µg/mL mouse IgG on Protein G′ microparticles; time 5 min.
Test [32] has as its target mouse IgG (Sigma Chemical Co., product number I5381). As to the kind of experiment: resonant light scattering; step 3, 50 µg/mL rabbit anti-mouse IgG in step 2 background on mouse IgG microparticles; against the starting spectra.

As for E. coli cellular extract proteins, the resonance wavelength shift in [1] was -0.005 nm.

Take “Fab specific goat anti-mouse IgG (Sigma Chemical Co. product M 6898) (antibody)”: in test [2], the resonance wavelength shift was 0.111 nm.

For the substance “anti-Alexa Fluor 488 rabbit IgG (Molecular Probes, Inc. product number A-11094) (antibody)”, the resonance wavelength shift in [3] was -0.004 nm.

For “biotinylated anti-bovine immunoglobulin G (IgG) [H+L] [Goat] (Rockland Inc., product number 601-1602) (antibody)”, the resonance wavelength shift in test [4] is 0.069 nm.

On to “mouse IgG (Sigma Chemical Co., product number I5381) (antibody)”, for which the wavelength shift in test [5] turned out to be 0.022 nm; in [6], 0.01 nm; in [7], 0.043 nm; in test [8] it was 0.06 nm; in test [9], 0.054 nm; in test [10] it was 0.037 nm. Also, the wavelength shift was determined as 0 nm in [11]; 0.036 nm in test [12]; 0.041 nm in [13]; 0.043 nm in test [14]; 0.037 nm in test [15]; 0.051 nm in test [16]. In addition, the wavelength shift was 0.054 nm in test [17]; 0.053 nm in test [19]; 0.026 nm in [20]; 0.058 nm in [22]; 0.03 nm in test [23]; 0 nm in [24]. The wavelength shift stood at 0 nm in [25]; 0.052 nm in test [26]; 0.041 nm in test [27]; 0.05 nm in [28]; 0.049 nm in test [29]; 0.036 nm in [30]. In addition, in test [31], the wavelength shift was 0.032 nm. This substance also returned a percent of the saturation binding level in [18] of 70%. Besides, the resonance wavelength shift in test [21] turned out to be 0.054 nm.

“rabbit anti-mouse IgG (H+L) (unconjugated, Pierce, product 31188) (antibody)”: in [32], the resonance wavelength shift was 0.056 nm.
